From publication doi:10.1101/2021.12.09.471704
Numbering of substitutions follows the chain as printed. Read-outs that look alike come from different tables or passages of the source.

Columns and labels:
[1] = target: T1, SiAgo (complex subunit);SiAga1 (complex subunit) (Sulfolobus islandicus M164;Sulfolobus …, UniProt C4KI01;C4KI00 1-459;1-243, |); test: EMSA
T1 sequence 1: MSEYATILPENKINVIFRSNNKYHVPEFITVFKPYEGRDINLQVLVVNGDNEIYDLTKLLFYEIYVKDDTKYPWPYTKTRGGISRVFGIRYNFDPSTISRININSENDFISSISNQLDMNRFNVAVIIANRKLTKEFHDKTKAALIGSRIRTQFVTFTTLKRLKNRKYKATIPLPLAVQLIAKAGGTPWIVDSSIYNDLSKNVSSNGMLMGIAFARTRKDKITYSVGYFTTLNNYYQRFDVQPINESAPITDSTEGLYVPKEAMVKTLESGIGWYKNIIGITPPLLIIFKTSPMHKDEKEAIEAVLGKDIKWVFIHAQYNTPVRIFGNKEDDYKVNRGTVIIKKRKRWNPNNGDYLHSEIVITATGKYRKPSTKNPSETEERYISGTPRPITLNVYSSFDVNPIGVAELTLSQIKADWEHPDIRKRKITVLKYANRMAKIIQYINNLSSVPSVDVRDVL
T1 sequence 2: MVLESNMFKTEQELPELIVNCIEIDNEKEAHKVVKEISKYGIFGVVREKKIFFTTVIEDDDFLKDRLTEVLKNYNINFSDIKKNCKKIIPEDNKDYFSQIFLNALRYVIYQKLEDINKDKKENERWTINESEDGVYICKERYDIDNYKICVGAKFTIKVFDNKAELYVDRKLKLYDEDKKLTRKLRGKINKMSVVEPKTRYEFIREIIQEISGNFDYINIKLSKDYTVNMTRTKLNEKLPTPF

[2] = target: T2, SiAgo M2;SiAga1 (complex subunit) (Sulfolobus islandicus M164;Sulfolobus …, UniProt C4KI01;C4KI00 1-459;1-243, K183A|); test: EMSA
T2 sequence 1: T1 sequence 1 with K183A
T2 sequence 2: T1 sequence 2

[3] = target: T3, SiAgo M1;SiAga1 (complex subunit) (Sulfolobus islandicus M164;Sulfolobus …, UniProt C4KI01;C4KI00 1-459;1-243, K142A|); test: EMSA
T3 sequence 1: T1 sequence 1 with K142A
T3 sequence 2: T1 sequence 2

SiAgo = target: T4, SiAgo (Sulfolobus islandicus M164, UniProt C4KI01 1-459); test: EMSA
T4 sequence: T1 sequence 1

[4] = target: T1, SiAgo (complex subunit);SiAga1 (complex …); test: EMSA; remark: listed apart in the source
[5] = target: T2, SiAgo M2;SiAga1 (complex subunit); test: EMSA; remark: listed apart in the source
[6] = target: T3, SiAgo M1;SiAga1 (complex subunit); test: EMSA; remark: listed apart in the source
[7] = target: T1, SiAgo (complex subunit);SiAga1 (complex …); test: competition

B1: guide 5P-RNA + TRNA (mixed)
RNA 1: UCAAAGCUUAGAUACCCUGGA
RNA 2: CCUCCAGGGUAUCUAAGCUUUGAA
modifications: guide 5' phosphate
binding result [1]: binds

B2: guide 5P-RNA + TDNA (mixed)
RNA: UCAAAGCUUAGAUACCCUGGA
DNA: CCTCCAGGGTATCTAAGCTTTGAA
modifications: guide 5' phosphate
binding result [1]: binds
binding result [2]: binds
binding result [3]: binds

B3: 5P-RNA (ssRNA)
RNA: UCAAAGCUUAGAUACCCUGGA
modifications: 5' phosphate
binding result (SiAgo): binds
binding result [4]: binds
binding result [5]: binds
binding result [6]: binds

B4: guide 5P-RNA + TRNA competitor (mixed)
RNA 1: UCAAAGCUUAGAUACCCUGGA
RNA 2: CCUCCAGGGUAUCUAAGCUUUGAA
modifications: guide 5' phosphate
binding result [7]: binds

B5: guide 5P-RNA + TDNA competitor (mixed)
RNA: UCAAAGCUUAGAUACCCUGGA
DNA: CCTCCAGGGTATCTAAGCTTTGAA
modifications: guide 5' phosphate
binding result [7]: binds
